Data set [1] concerns the target T1, C-terminally His-tagged RavA (E. coli, UniProt P31473 1-498).
T1 construct: RavA, MoxR AAA+ ATPase, E. coli K-12 MG1655; It cites earlier work for RavA being a hexamer with ADP or ATP and partly monomeric without nucleotide; also called apo-RavA; not shown: His tag, C-terminal, kept
The data set can be described thus: BLI; biotinylated ViaA construct immobilised on streptavidin biosensors, RavA in solution with 1 mM ADP (pre-incubated 10 min); HBS kinetics buffer, 293 K; 1:1 model. Conditions: both partners purified. In general terms: BLI is a label-free optical method that tracks binding on a fibre tip over time.

For data set [2], the target named is T1, C-terminally His-tagged RavA. Kind of data set: BLI; biotinylated ViaA construct immobilised on streptavidin biosensors, ligand in solution, no nucleotide added; HBS kinetics buffer (25 mM HEPES pH 7.5, 300 mM NaCl, 10 mM MgCl2, 10 % glycerol, 0.1% BSA, 0.02% Tween-20), 293 K, Octet RED96; 1:1 model. The conditions noted are these: both partners purified.
Data set [3] deals with the molecule itself. Kind of data set: SAXS; AviTag-ViaA-His at 3 mg/mL, 25 mM HEPES pH 7.5, 300 mM NaCl, 10 mM MgCl2, 10 % glycerol, 20 °C; MW by SAXSMoW and ScÅtter.
Data set [4] concerns the molecule itself. The data set can be described thus: SEC-MALS; Superdex 200 increase 10/300 GL, 4 °C, 25 mM HEPES pH 7.5, 300 mM NaCl, 10 mM MgCl2, 10 % glycerol; AviTag-ViaA-His 80 µL at 3 mg/mL, His-NTV-AviTag 80 µL at 2 mg/mL. For orientation: Size exclusion chromatography separates by hydrodynamic size, large species first.
The target of data set [5] is T1, C-terminally His-tagged RavA. The data set can be described thus: BLI; Supplementary Fig. 1: biotinylated His-NTV-AviTag or ViaA immobilised on streptavidin biosensors, RavA or RavAΔLARA in solution; HBS kinetics buffer, 293 K; the methods say 1 mM ADP was added with RavA or RavAΔLARA. The conditions noted are these: both partners purified.

Consider three molecules from PMC9489729, “The AAA+ ATPase RavA and its binding partner ViaA modulate E. coli aminoglycoside sensitivity through interaction with the inner membrane” (Nature Communications, 2022).

A word on the Kd: it is the constant that tells how readily two partners part at equilibrium. The stoichiometry N is a count of units in the complex or per binding partner.

T1 sequence (P31473 whole entry): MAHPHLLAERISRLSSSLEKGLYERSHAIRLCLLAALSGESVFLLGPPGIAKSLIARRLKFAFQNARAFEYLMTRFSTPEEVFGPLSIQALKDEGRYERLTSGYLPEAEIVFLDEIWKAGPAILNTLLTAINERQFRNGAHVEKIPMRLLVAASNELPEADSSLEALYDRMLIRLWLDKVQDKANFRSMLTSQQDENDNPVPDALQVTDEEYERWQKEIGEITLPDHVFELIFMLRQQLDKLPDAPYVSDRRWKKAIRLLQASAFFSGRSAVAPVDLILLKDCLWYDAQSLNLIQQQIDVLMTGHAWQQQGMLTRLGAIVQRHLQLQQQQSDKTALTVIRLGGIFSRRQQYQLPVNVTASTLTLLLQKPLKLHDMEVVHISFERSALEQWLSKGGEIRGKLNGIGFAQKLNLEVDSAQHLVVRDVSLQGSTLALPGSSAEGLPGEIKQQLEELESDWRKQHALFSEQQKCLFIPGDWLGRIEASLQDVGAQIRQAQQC

B1: His-ViaA-AviTag (natural protein, E. coli, UniProt P0ADN0 1-483, looked up)
chain: MLTLDTLNVMLAVSEEGLIEEMIIALLASPQLAVFFEKFPRLKAAITDDVPRWREALRSRLKDARVPPELTEEVMCYQQSQLLSTPQFIVQLPQILDLLHRLNSPWAEQARQLVDANSTITSALHTLFLQRWRLSLIVQATTLNQQLLEEEREQLLSEVQERMTLSGQLEPILADNNTAAGRLWDMSAGQLKRGDYQLIVKYGEFLNEQPELKRLAEQLGRSREAKSIPRNDAQMETFRTMVREPATVPEQVDGLQQSDDILRLLPPELATLGITELEYEFYRRLVEKQLLTYRLHGESWREKVIERPVVHKDYDEQPRGPFIVCVDTSGSMGGFNEQCAKAFCLALMRIALAENRRCYIMLFSTEIVRYELSGPQGIEQAIRFLSQQFRGGTDLASCFRAIMERLQSREWFDADAVVISDFIAQRLPDDVTSKVKELQRVHQHRFHAVAMSAHGKPGIMRIFDHIWRFDTGMRSRLLRRWRR
modifications: biotinylated for the BLI binding studies (50 μM D-biotin added to the LB medium during expression)
notes: ViaA, E. coli, residues 1-483, cloned in the p11-Toronto1 vector; also called C-terminally AviTagged ViaA; source: E. coli BL21 (DE3), purified (NiNTA IMAC, desalting, SEC); not shown: His6, N-terminal, kept
On to B1, for which the results for the Kd in data set [1] and in data set [2] were about 2200 nM and 11 µM, respectively.

B2: AviTag-ViaA-His (natural protein, E. coli, UniProt P0ADN0 1-483, looked up)
chain: MLTLDTLNVMLAVSEEGLIEEMIIALLASPQLAVFFEKFPRLKAAITDDVPRWREALRSRLKDARVPPELTEEVMCYQQSQLLSTPQFIVQLPQILDLLHRLNSPWAEQARQLVDANSTITSALHTLFLQRWRLSLIVQATTLNQQLLEEEREQLLSEVQERMTLSGQLEPILADNNTAAGRLWDMSAGQLKRGDYQLIVKYGEFLNEQPELKRLAEQLGRSREAKSIPRNDAQMETFRTMVREPATVPEQVDGLQQSDDILRLLPPELATLGITELEYEFYRRLVEKQLLTYRLHGESWREKVIERPVVHKDYDEQPRGPFIVCVDTSGSMGGFNEQCAKAFCLALMRIALAENRRCYIMLFSTEIVRYELSGPQGIEQAIRFLSQQFRGGTDLASCFRAIMERLQSREWFDADAVVISDFIAQRLPDDVTSKVKELQRVHQHRFHAVAMSAHGKPGIMRIFDHIWRFDTGMRSRLLRRWRR
modifications: biotinylated for the BLI binding studies (50 μM D-biotin added to the LB medium during expression)
notes: ViaA, E. coli K-12 MG1655, VWA domain protein, residues 1-483 (NTV 1-319, CTV/VWA domain 320-483), cloned in pET22b; Dimer by SEC-MALLS and SAXS; Theoretical MW of the construct is 60.4 kDa; also called AVI-ViaA-HIS; N-terminally AviTagged ViaA; source: E. coli BL21 (DE3), purified (NiNTA IMAC, desalting, SEC); not shown: AviTag, N-terminal, kept; His tag, C-terminal, kept
In the case of B2, the “stoichiometry N” value was 2 in data set [3] and about 2 in data set [4]. The Kd in data set [1] is about 2200 nM; in data set [2], 18.9 µM.

B3: His-NTV-AviTag (domain or fragment, E. coli, UniProt P0ADN0 1-319, looked up)
chain: MLTLDTLNVMLAVSEEGLIEEMIIALLASPQLAVFFEKFPRLKAAITDDVPRWREALRSRLKDARVPPELTEEVMCYQQSQLLSTPQFIVQLPQILDLLHRLNSPWAEQARQLVDANSTITSALHTLFLQRWRLSLIVQATTLNQQLLEEEREQLLSEVQERMTLSGQLEPILADNNTAAGRLWDMSAGQLKRGDYQLIVKYGEFLNEQPELKRLAEQLGRSREAKSIPRNDAQMETFRTMVREPATVPEQVDGLQQSDDILRLLPPELATLGITELEYEFYRRLVEKQLLTYRLHGESWREKVIERPVVHKDYDEQPR
modifications: biotinylated for the BLI binding studies (50 μM D-biotin added to the LB medium during expression)
notes: ViaA, E. coli, N-terminal domain (NTV), residues 1-319; also called N-Terminal domain of ViaA; source: E. coli, expressed and purified as the ViaA constructs (NiNTA IMAC, desalting, SEC)
As to B3, the binding result in data set [5] was “binds”.
